Experimental data as given in article doi:10.1101/2021.12.20.473529 (bioRxiv, 2021).

B1: HNF-1A DD-DBD (HNF-1A 1-279), wild type (domain or fragment, human, UniProt P20823 1-279, looked up)
chain: MVSKLSQLQTELLAALLESGLSKEALIQALGEPGPYLLAGEGPLDKGESCGGGRGELAELPNGLGETRGSEDETDDDGEDFTPPILKELENLSPEEAAHQKAVVETLLQEDPWRVAKMVKSYLQQHNIPQREVVDTTGLNQSHLSQHLNKGTPMKTQKRAALYTWYVRKQREVAQQFTHAGQGGLIEEPTGDELPTKKGRRNRFKWGPASQQILFQAYERQKNPSKEERETLVEECNRAECIQRGVSPSQAQGLGSNLVTEVRVYNWFANRRKEEAFRH
B2: HNF-1A DD-DBD/N266S (domain or fragment, human, UniProt P20823 1-279, looked up)
chain: MVSKLSQLQTELLAALLESGLSKEALIQALGEPGPYLLAGEGPLDKGESCGGGRGELAELPNGLGETRGSEDETDDDGEDFTPPILKELENLSPEEAAHQKAVVETLLQEDPWRVAKMVKSYLQQHNIPQREVVDTTGLNQSHLSQHLNKGTPMKTQKRAALYTWYVRKQREVAQQFTHAGQGGLIEEPTGDELPTKKGRRNRFKWGPASQQILFQAYERQKNPSKEERETLVEECNRAECIQRGVSPSQAQGLGSNLVTEVRVYSWFANRRKEEAFRH
B3: HNF-1A DD-DBD/R263C (domain or fragment, human, UniProt P20823 1-279, looked up)
chain: MVSKLSQLQTELLAALLESGLSKEALIQALGEPGPYLLAGEGPLDKGESCGGGRGELAELPNGLGETRGSEDETDDDGEDFTPPILKELENLSPEEAAHQKAVVETLLQEDPWRVAKMVKSYLQQHNIPQREVVDTTGLNQSHLSQHLNKGTPMKTQKRAALYTWYVRKQREVAQQFTHAGQGGLIEEPTGDELPTKKGRRNRFKWGPASQQILFQAYERQKNPSKEERETLVEECNRAECIQRGVSPSQAQGLGSNLVTEVCVYNWFANRRKEEAFRH

Molecular target: the molecule itself
Experiment: SEC-MALS

Stoichiometry N, 2:
B1
B2
B3
